B1: NbCoV_39 (VHH)
VHH: QVQLQESGGGLVQAGGSLRLSCAASGRTFSSTAMAWFRQAPGQEREFVATISWSGDNTKYADSVKGRFTISRDNAKNTVYLQMNSLKPEDTAVYYCAADPGNFGVPIEYFMFDYWGQGTQVTVSS
notes: also called Nb 39; 39A
B2: NbCoV_43 (VHH)
VHH: QVQLQESGGGLVQPGGSLRLSCVASGSIGSINHMAWFRKPPGKERELVASITLAPDEIAYYADSVKGRFAISKGNAQPTLYLQMNSLKPEDTAVYYCHFRQIRANAHDVYWGQGTQVTVSS
notes: also called Nb 43
B3: NbCoV_104 (VHH)
VHH: QVQLQESGGGLVQPGGSLRLSCAASGSIFRVMGWYRQAPGKEHDLVATITRSGDTNYADSVKGRFTISRDNTKNTVYLQMNNLKPEDTDVYYCYARNFVGHNPDVWGQGTQVTVSS
notes: also called Nb 104

For this assay, the target named is Spike protein of wild-type virus B. 1.499, hCoV-19/Argentina/PAIS-C0102/2020 (Andina Strain) (SARS-CoV-2). The assay is described as follows: cell-based or functional assay.
With B1, the “wildtype VN assay on Vero cells, neutralizing activity” value turned out to be 0.4 µM. The result for B2 reads 0.1 µM; that for B3, 0.3 µM.

The values above are taken from patent US20240254202A1 (CONSEJO NACIONAL DE INVESTIGACIONES CIENT FICAS Y T CNICAS …, published 2024).
